Assay: yeast display, Sf9 membrane polyspecificity reagent, FACS + sequencing; frameworks hold sequencing errors
Procedure, shortened: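 Synthetic nanobody libraries on Saccharomyces cerevisiae BJ5465 were galactose-induced for 36–48 hours, stained 1 hour at 4 °C with 10% biotinylated, detergent-solubilized Sf9 membrane reagent and enriched on streptavidin microbeads. FACS then separated cells into low and high (top ~1%) gates by anti-HA (expression) and streptavidin (reagent binding) fluorescence. Genes were colony-PCR amplified, MiSeq 2 × 250 sequenced and CDR-length filtered. A clone's polyreactivity label is that of its gate of origin.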

QVQLVESGGGLVQAGGSLRLSCAASGRIFPYNAMGWSRQAPGQERELVARIDSGGRTNYADSVKGRFTISRDNAKNTVYLQMNSLKPEDTAVYYCARVFSLARSWYRYYYWGQGTQVTVSS
polyreactivity (PSR sort gate): high polyreactivity

QVQLVESGGGLVHAGGILRLSSPASGSTIRYYAMGWYRQAPGKESQLVAVISTSGNTYYADSVKGRFTISRDNAKNTVYLQMNSLKPEDTAVYYCAARGVGGQISQEYDYWGQGTQVTVSS
polyreactivity (PSR sort gate): low polyreactivity

QVQLIESGGGLVQAGGSLRLSCAASGSIFQYTMGWYRQAPGKERELVAAITRSGSSTYYADSVKGRFTISRDNAKNTVYLQMNSLKPEDTAVYYCAHTIRRVLGYGSWGQGTQVTVSS
polyreactivity (PSR sort gate): high polyreactivity

QVQLVESGGGLVQAGGSLRLSCAASGSIFPYNDMGWYRQAPGKERELVAAISDSAGSTYYADSVKGRFTISRDNAKNTVYLQMNSLKPEDTAVYYCADYDYWGQGTQVTVSS
polyreactivity (PSR sort gate): low polyreactivity

QVQLVESGGGLVQAGGSLRLSCAASGLTFSRNTMGWYRQAPGKERELVDTIDRGGRTNYADSVKGRFTISRDNAKNTVYLQMNSLKPEDTAVYYCATDASFYDPDLYPYGYDYWGQGTQVTVSS
polyreactivity (PSR sort gate): high polyreactivity

QVQLVESGGGLVQAGGSLRLSCAASGFIFDRYAMGWYRQAPGKERELVAAISSGGSTYYADSVKGRFTISRDNAKNTVYLQMNSLKPEDTAVYYCAAESWLKFIYEYDYWGQGTQVTVSS
polyreactivity (PSR sort gate): low polyreactivity

QVQLVESGGGLVQAGGSLRLSCAASGFTLGWYAKGWYRQAPGKERELVASINWDGGSTYYADSVKVRFTISRDNAKNTVYLPMNSLKAEDTAVDYWAAPPGGGGGIGYDSWGQGTQVTVSS
polyreactivity (PSR sort gate): high polyreactivity

QVQLVESGGGLVQAGGSLRLSCAASGYIFTTYAMGWYRQAPGKERELVAAISSSGGRTSYADSVKGRFTISRDNAKNTVYLQMNSLKPEDTAVYYCNARVAPKSRRITYGYWGQGTQVTVSS
polyreactivity (PSR sort gate): high polyreactivity

QVQLVESGGGLVQAGGSLRLSCAASGSIFADNAMGWYRQAPGKERELVAAITWSGGSTYYADSVKGRFTISRDNAKNTVYLQMNSLKPEDTAVYYCNADDAVEYSYGGGTEFYYWGQGTQVTVSS
polyreactivity (PSR sort gate): low polyreactivity

QVQLVESGGGLVQAGGSLRLSCAASGSIFVSYAMGWYRQAPGKERELVAAITWSGGSTYYADSVKGRFTISRDNAKNTVYLQMKSLKPEDTAVYYCAADEPYPTAYEYWGQGTQVTVSS
polyreactivity (PSR sort gate): low polyreactivity

QVQLVESGGGLVQAGGSLRLSSAASGSIFGSNAMGWYRPAPVKERELVAAISSGSTYYADSVKGRFTISRDNAKNTVYLQMNSLKPEDTAVYYCYARSLLYEFDYWGQGTQVTVSS
polyreactivity (PSR sort gate): low polyreactivity

QVQLVESGGGLVQAGGSLRLSCAASGFIFGWNAMGWSRQAPGKEREFVAAISWSGGSTYYADSVKGRFTISRDNAKNTVYLQMNSLKPEDTAVYYCAREYHGDSRRYDYWGQGTQVTVSS
polyreactivity (PSR sort gate): high polyreactivity

QVQLVESGGGLVQAGGSLRLSCAASVRTMGPYTMGWYRPAPGKERELVAVISSRTGLTYYADSVKGRFTISRDNAKITFYLHMNSLKPEDTAVYYCNAGGRYHAPSGDYWGQGTQVTVSS
polyreactivity (PSR sort gate): low polyreactivity

QVQLQEGGGGLVQAGGSLRLSCAASGYISYGDVMGWYRQAPGEERELVASIGLDATTNYADSVKGRFTISRDNAKITVYLQMNSLKPEATAVYYCAADVGSGVMCGYWGQGTQMTVSS
polyreactivity (PSR sort gate): high polyreactivity

QVQLVESGGGLVQAGGSLRLSCAASGRIFYPYAMGWYRQAPGKERELVAAIDFSDGNSYYADSVKGRFTISRDNAKNTVYLQMYSLKPEDTAVYYCAVDYTGAWIGVWYDYWGLGTQVTVSS
polyreactivity (PSR sort gate): high polyreactivity

QVQLVESGGGLVQAGGSLRLSCAASGFTFFYNAMGWYRQAPGKEREFVAAISGRGGRTYYADSVKGRFTISRDNAKNTVYLQMNSLKPEDTAVYYCNADYYPYGEYDYWGQGTQVTVSS
polyreactivity (PSR sort gate): high polyreactivity

QVQLVESGGGLVQAGGSLRLSCAASGLTFYYYAMGWYRQAPGKERELVATITSSGARTYYADSVKGRFTISRDNAKNTVYLQMNSLKPEDTEVYYCAADYGIWQRGSHYWDMDYWGQGTQVTVSS
polyreactivity (PSR sort gate): high polyreactivity

QVQLVESGGGLVQAGGSLRLSCAASGLIFSYNDMGWYRQAPGKERELVASISNGGSTNYADSVKGRFTISRDNAKNTVYLQMNSLKPEDTAVYYCAAEGALGEVYWWNVRRYYWGQGTQVTVSS
polyreactivity (PSR sort gate): low polyreactivity

QVQLVESGGGLVQAGGSLRLSCAASGITFYDYDMGWYRQAPGKERELVAAINSGASTSYADSVKGRFTISRDNAKNTVYLQMNSLKPEDTAVYYCNADVRVDYLSGDLDYWGQGTQVTVSS
polyreactivity (PSR sort gate): low polyreactivity

QVQLVESGGGLVQAGGSLRLSCAASGSIFGYYAMGWYRQTPGKERELVAAIRWRGGRTYYADSVKGRFTISRDNAKNTVYLQMNSLKPEDTAVYYCNTRRTGRRSTTPGDYWGQGTQVTVSS
polyreactivity (PSR sort gate): high polyreactivity

QVQLVESGGGLVQAGGSLRLSCPASGFIFRRYVMGWYRQSPGKERELVAAISKSAVNTYYADSVKGRFTISRDNAKNTVYLQMNSLIPEDTEVYYCNKYGYKGGVGYDYWGQGTQVTVSS
polyreactivity (PSR sort gate): high polyreactivity

QVQLVESGGGLVQAGGSLRLSCAASGSTLYGYAMGWYRQAPGKERELVAAISVSGGRTYYADSVKGRFTISRDNAKNTVYLQMNSLKPEDTAVYYCAAYGTTRMDYWGQGTQVTVSS
polyreactivity (PSR sort gate): high polyreactivity

QVQLVESGGGLVQAGGSLRLSCAASGFIFGYYAMGWYRQAPGKERELVAAITRSGGSTRYADSVKGRFTISRDNANNNVYLQMNSLKPEDSAVYYCATRDGTHGYWGQGTQVTASS
polyreactivity (PSR sort gate): high polyreactivity

QVQLVESGGGLVQAGGSLRLSCAASGFTISPYAMGWYRQAPGKERELVAAITRRSGSTYDADSVKGRFTISRDNAKNTVYLQMNSLKPEDTAVYYCNAKFYTAVYSYSLFNYWGQGTQVTVSS
polyreactivity (PSR sort gate): high polyreactivity

QVQLVESGGGLVQAGGSLRISCAASGSIFNIYAMGWSRQAPGKERELVATITGIADSTYYADSVKGRFTISRDNAKNTVNFQMNSLKPEDTAVYYCAARRTRVTGRYSVYAFDYWGQGTQVTVSS
polyreactivity (PSR sort gate): low polyreactivity

QVQLVESGGGLVQAGGSLRLSCAASGRICDSYTMGWYRQAPGKERELVAAISRGGGSTYYADSVKGRFTISRDNAQNTVYLQMNSLKPEDTAVYYCAASSYLNSRFKFDYWGQGTQVTVSS
polyreactivity (PSR sort gate): low polyreactivity

QVQLVESGGGLVQAGGSLRLSCAPSGRTIGRNAMGWSRQAPGKERELVAAISASGSRTYYAESVKGRFTISRDNAMNTVYLQMNSLKPVDTAVYYCNAVYRTLYYRFYYWGQGTQVTVSS
polyreactivity (PSR sort gate): high polyreactivity

QVQLLESGGGLVQAGGSLRLSCAATGRIFAPYTMGWYRQAPGTEMEMFAVISKRGGNTYYADSVKGRFTISRDNAKNTVYLQMNSLKPEATAVYFCNADWQFRVYLGGPGTHGYDYWGQGTQVTVSS
polyreactivity (PSR sort gate): low polyreactivity

QVQLEESVGGLVQAGGSLRLSCAASGRIFRGYAMGWYRQAPGKETELVATISAIGGSTYADSVKGRFTISRDNAKNTVYLQKNSLKPEDTAVYYCNVRKVYRYQFRFEYWGQGTQVTVSS
polyreactivity (PSR sort gate): high polyreactivity

QVQLVESGGGLVQAGGSLRLSCAASGFTFDYNAMGWYRQAPGKERELVAAISASGGSTYYADSVKGRFTISRDTAKNTVYLQMNSLKPEDTAVYYCAAKRFSPQHRYDHWGQGTQVTVSS
polyreactivity (PSR sort gate): high polyreactivity

QVQLVESGGGIVQAGGSLRLSCAASGSIFRRYATGWYRQAPGKERELVAAISSGGSTYADSVKGRFTISRDNAKNTVYLQMNSLKPEDTAVYYCAVDWAQEDGYWGQGTQVTVSS
polyreactivity (PSR sort gate): low polyreactivity

QDQLVESGGGLVQAGGSLRLSCADSGYTFTSNDMGWYRQAPGKERELVAAITWSGGTTYYADSVKGRFTISRDNAKNNVYLQMNSLKPDDTAVYYCAAESTLPIIDRDDYWGQGTQVTVSS
polyreactivity (PSR sort gate): low polyreactivity

QFQLVESGGGLVQAGGSLRLSCAASGRTFWSNAMVWYRQAPGKERELVAAISGGARTNYADSVKGRFTISRDNAKNTVYLQMNSLKPEDTEVYFCAATPRYWQSRYDYWGKGTQVTVSS
polyreactivity (PSR sort gate): high polyreactivity

QVQLVESGGGLVQAGGSLRLSCAASGSTFRLYAMGWYRQAPGKEREFVAAISFRGGSTYYADSVKGRFTISRDNAKNTVYLQMNSLKPEDTAVYYCAADYWTSADPRNIIKYDYWGQGTQVTVSS
polyreactivity (PSR sort gate): high polyreactivity

QVQLVESGGGLVQAGGSLRLSCAASGSIFSVNAMGWYRQAPGKEREFVAGISTSGGSTYYADSVKGRFTISRDNAKNTVYLQMNSLKPEDTAVYYCAKGNFLYWQVRYYRPYKSRFYYWGQGTQVTVSS
polyreactivity (PSR sort gate): low polyreactivity

QVQLVESGGGLDQAGGSLRVSCAASGSTFHRNAMGWYRQAPGKERELVAAITSGGSTNYADSVKGRFTISRDNAKNTVYLQMNSLNPEDTAVYYCAKDYLHYNRGWYDYWGQGTQVTVSW
polyreactivity (PSR sort gate): low polyreactivity

QVQLVESGGGLVQAGGSLRLSCAASGSIFYVYTMGWYRQAPGKERELVAAITVSGGRTYYADSVKGRFTISRDNAKNTVYLQLNSLKPEDTAVYYCAADTAWPYYIYWSYDYWGQGTQVTVSS
polyreactivity (PSR sort gate): low polyreactivity

QVHLVESGGGLVQAGGSLRLSCAASGSTFTSYAMGWYRQAPGKERELVATISKISGSTYYADSVKGRFTISRDNAKNTVYLQMNSLKPEDTAVYYCAAKQGWVQSSILWYRAYGTLNVRRERMDYWGQGTQVTVSS
polyreactivity (PSR sort gate): high polyreactivity

QVHLVESGGGLVQAGGSLRLRCAASGRIFPSNAMGWYRQAPWKERELVAGITWRRDSTYYADSVKGRFTISRDKAKNTVYLQMNSLKPEDTAVYYCAATFRYTKLYYWGQGTQVTVSS
polyreactivity (PSR sort gate): low polyreactivity

QVQLVESGGGLVQAGGSLRLSCAASGITFSFYAMGWYRQAPGKERELVAAISWNGDSTYYADSVKGRFTISRDNAKNTVYLQMNSLKPEDTAVYYCNAEFVAWYYYEDQDGDYWGQGTQVTVSS
polyreactivity (PSR sort gate): high polyreactivity

QVQLVESGGGLVQAGGSLRLSCAASGRILVKNTMGWYRQAPGKERELVAAITSAGNTYYADSVKGRFTITRDNAKNSVYFQMNSLTPEATAVYYCAARNRTFFQPTYYYWGQGTQVTVSS
polyreactivity (PSR sort gate): high polyreactivity

QVQLVESGGGLVQAGGSLRLSCAASGSTFYYHGRGWSRQAPGKERELVAVISISGGSTYYADSVKGSFTISRDNAKNTVDLQMNSLKPEDTAVYYCATSYVGRSAYRSYGARGGYWGQGTQVTVSS
polyreactivity (PSR sort gate): low polyreactivity

QVQLVESGGGLVQAGGSLRLSCAASGFTFAAYDKGWSRQAPGKELELVAAITKSGASTYYADSVKGRFTISRDIAKNTFYLQMNSLKPEDTAVYYCAAKNTLYSYYYWGQGTQVTVSS
polyreactivity (PSR sort gate): high polyreactivity
